Results on 1 molecule are retold here after paper PMC10987609, “ATR limits Rad18-mediated PCNA monoubiquitination to preserve replication fork and telomerase-independent telomere stability” (The EMBO Journal, 2024).

The test deals with T1, ubiquitinated SFB-tagged PCNA purified from HEK293T cells (human | , UniProt P12004 1-261; P0CG48 1-76, ubiquitinated with His-tagged ubiquitin; the paper places Rad18-mediated monoubiquitination at lysine 164).
T1 construct: PCNA, human, full-length cDNA; wild-type ubiquitin (Ub), conjugated to PCNA; the transfected plasmid is probably the N-terminal one; also called ubiquitinated SFB-PCNA; monoubiquitinated PCNA; source: HEK293T stably expressing His-tagged Ub, transfected with SFB-PCNA, treated with HU and ATRi; purified (cobalt resin under denaturing conditions, then streptavidin beads, biotin elution)
In words: pull-down; GST-UBZ4 on glutathione-Sepharose resin incubated with ubiquitinated SFB-tagged PCNA purified from HEK293T cells; NETN buffer, 4 °C, 1 h. The note with it: both partners purified.

B1: GST-SLX4-UBZ4-WT (domain or fragment, human, UniProt Q8IY92 292-361, looked up)
chain: GLFFCQICQKNLSAMNVTRREQHVNRCLDEAEKTLRPSVPQIPECPICGKPFLTLKSRTSHLKQCAVKME
notes: SLX4, human, fragment with the tandem UBZ4 domains, amino acids 292–361; also called GST-UBZ4; source: E. coli, purified (glutathione-Sepharose, used on beads)
On to B1, for which the binding result is recorded as “binds”.
